Where a chain is given by its changes, count along the chain named. In names and notes the source's numbering stands.
Tests used:
[1] = biological target: T1, Photobacterium phosphoreum strain JT-ISH-467 β-galactoside-α2,3-sialyltransferase N2C0 variant F318AE319A (ISH467-N2C0-F318AE319A); Phe318 and Glu319 of SEQ ID N (Photobacterium phosphoreum, UniProt A5LHX0, E342A/F341A); assay: Sialyltransferase kinetics for lactose and CMP-sialic acid, F318A E319A variant enzyme; format: biochemical; settings: not containing His×6-Tag
T1 sequence (A5LHX0 with tags, fused parts or gaps F341A/E342A): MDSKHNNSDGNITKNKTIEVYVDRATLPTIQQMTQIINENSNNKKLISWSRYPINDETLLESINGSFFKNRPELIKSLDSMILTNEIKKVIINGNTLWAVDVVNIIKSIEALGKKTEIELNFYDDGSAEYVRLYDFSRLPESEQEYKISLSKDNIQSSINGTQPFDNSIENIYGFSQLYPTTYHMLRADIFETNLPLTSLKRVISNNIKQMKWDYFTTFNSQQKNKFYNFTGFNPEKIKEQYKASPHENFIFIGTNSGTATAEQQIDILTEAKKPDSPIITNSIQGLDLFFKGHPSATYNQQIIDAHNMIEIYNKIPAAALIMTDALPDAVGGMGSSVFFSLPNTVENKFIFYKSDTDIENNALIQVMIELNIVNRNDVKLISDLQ
Experimental: The β-galactoside-α2,3-sialyltransferase activities of variant-type N2C0 proteins (four variants: F318A, E319A, F318AE319A, and S337A) each containing His×6-Tag purified in Example 1 (2) were measured. The sialyltransferase activity was measured by the method as described in J. Biochem., 120, 104-110, (1996) (hereby incorporated by reference in its entirety). […] The enzyme reaction was performed at 30° C. for 5 minutes. After the completion of the reaction, 1.97 mL of 5 mM phosphate buffer (pH 6.8) was added to the reaction solution, which was then applied to a Dowex 1×8 (PO4^3− form, 0.2×2 cm, manufactured by Bio-Rad Laboratories, Inc.) column. The reaction product contained in the eluate (0 to 2 mL) from this column, i.e., the radioactivity contained in sialyllactose was measured to calculate the enzyme activity. One enzyme unit (1 U) is defined as the amount of the enzyme required to release one micromole of sialic acid per minute.

[2] = biological target: T2, Photobacterium phosphoreum strain JT-ISH-467 β-galactoside-α2,3-sialyltransferase N2C0 (ISH467-N2C0), wild type, SEQ ID NO: 2, not containing His×6-Tag (Photobacterium phosphoreum, UniProt A5LHX0); assay: Sialyltransferase kinetics for lactose and CMP-sialic acid, wild-type N2C0 enzyme; format: biochemical
T2 sequence (A5LHX0 with tags, fused parts or gaps): T1 sequence (A5LHX0 with tags, fused parts or gaps F341A/E342A) with A318F, A319E

[3] = substrate: CC(=O)N[C@H]1[C@H]([C@H](O)[C@H](O)CO)O[C@](OP(=O)(O)OC[C@H]2O[C@@H](n3ccc(N)nc3=O)[C@H](O)[C@@H]2O)(C(=O)O)C[C@@H]1O; assay: purified protein, by the assay type; settings: not containing His×6-Tag, 30.0 °C
[4] = substrate: OC[C@H]1O[C@@H](O[C@H]2[C@H](O)[C@@H](O)C(O)O[C@@H]2CO)[C@H](O)[C@@H](O)[C@H]1O; assay: purified protein, by the assay type; settings: not containing His×6-Tag, 30.0 °C
[5] = substrate: CC(=O)N[C@H]1[C@H]([C@H](O)[C@H](O)CO)O[C@](OP(=O)(O)OC[C@H]2O[C@@H](n3ccc(N)nc3=O)[C@H](O)[C@@H]2O)(C(=O)O)C[C@@H]1O; assay: purified protein, by the assay type; format: biochemical, Photobacterium phosphoreum strain JT-ISH-467; settings: other: E319A variant enzyme, not containing His×6-Tag; 30.0 °C
Experimental: (§1) The sialyltransferase activity was measured by the method as described in J. Biochem., 120, 104-110, (1996) (hereby incorporated by reference in its entirety). […] The enzyme reaction was performed at 30° C. for 5 minutes. After the completion of the reaction, 1.97 mL of 5 mM phosphate buffer (pH 6.8) was added to the reaction solution, which was then applied to a Dowex 1×8 (PO4^3− form, 0.2×2 cm, manufactured by Bio-Rad Laboratories, Inc.) column. […] One enzyme unit (1 U) is defined as the amount of the enzyme required to release one micromole of sialic acid per minute.

[6] = substrate: OC[C@H]1O[C@@H](O[C@H]2[C@H](O)[C@@H](O)C(O)O[C@@H]2CO)[C@H](O)[C@@H](O)[C@H]1O; assay: purified protein, by the assay type; format: biochemical, Photobacterium phosphoreum strain JT-ISH-467; settings: other: E319A variant enzyme, not containing His×6-Tag; 30.0 °C
Experimental: as §1

[7] = other: wild-type N2C0 enzyme, pH 6.8
[8] = other: F318A E319A variant enzyme

Molecule: OC[C@H]1O[C@@H](O[C@H]2[C@H](O)[C@@H](O)C(O)O[C@@H]2CO)[C@H](O)[C@@H](O)[C@H]1O (stereo partly drawn) [Lactose, lactose]
- Vmax [1]: 7.2 nmol/min
- kcat [1]: 10.8 s⁻¹
- Vmax [2]: 3.9 nmol/min
- kcat [2]: 11.2 s⁻¹

Molecule: CC(=O)N[C@H]1[C@H]([C@H](O)[C@H](O)CO)O[C@](OP(=O)(O)OC[C@H]2O[C@@H](n3ccc(N)nc3=O)[C@H](O)[C@@H]2O)(C(=O)O)C[C@@H]1O [CMP-sialic acid, cytidine monophosphate (CMP)-sialic acid]
- Vmax [1]: 8.9 nmol/min
- kcat [1]: 13.3 s⁻¹
- Vmax [2]: 7.3 nmol/min
- kcat [2]: 21.0 s⁻¹

B1: Photobacterium phosphoreum strain JT-ISH-467 β-galactoside-α2,3-sialyltransferase N2C0 (ISH467-N2C0), wild type, SEQ ID NO: 2, not containing His×6-Tag … (protein)
chain: T1 sequence (A5LHX0 with tags, fused parts or gaps F341A/E342A) with A318F, A319E
- Km [3, 7]: 0.72 mM
- Km [4, 7]: 8.4 mM

B2: Photobacterium phosphoreum strain JT-ISH-467 β-galactoside-α2,3-sialyltransferase N2C0 variant F318AE319A (ISH467-N2C0-F318AE319A; Phe318 and Glu319 of SEQ ID … (protein)
chain: T1 sequence (A5LHX0 with tags, fused parts or gaps F341A/E342A)
- Km [3, 8]: 1.59 mM
- Km [4, 8]: 85 mM

B3: Photobacterium phosphoreum strain JT-ISH-467 β-galactoside-α2,3-sialyltransferase N2C0 variant E319A (ISH467-N2C0-E319A; Glu319 of SEQ ID NO: 2 replaced with … (protein)
chain: T1 sequence (A5LHX0 with tags, fused parts or gaps F341A/E342A) with A318F
- Km [5]: 0.53 mM
- Vmax [5]: 3.2 nmol/min
- kcat [5]: 106.3 s⁻¹
- Km [6]: 22 mM
- Vmax [6]: 0.012 µmol/min
- kcat [6]: 99.7 s⁻¹

Reference: US20130122566A1, “NOVEL ENZYME PROTEIN, PROCESS FOR PRODUCTION OF THE ENZYME PROTEIN THE SAME, AND GENE ENCODING THE ENZYME PROTEIN THE SAME” (JAPAN TOBACCO INC., priority 2010, published 2013)
